Paper doi:10.1101/2025.03.07.641123

How the values were obtained:
[1] = molecular target: TW1 (DtxR-Geminin coiled-coil-SpyCatcher) (UniProt P0DJL7); assay: mass photometry
[2] = molecular target: TW2 (TrpR-Geminin coiled-coil-SpyTag-Geminin coiled-coil-MetJ) (UniProt P0A881); assay: mass photometry

Row | Substance | stoichiometry N [1] | stoichiometry N [2]
1 | TW1 (DtxR-Geminin coiled-coil-SpyCatcher) (from UniProt P0DJL7 2-121; O75496 110-145) | 2 | 
2 | TW2 (TrpR-Geminin coiled-coil-SpyTag-Geminin coiled-coil-MetJ) (from UniProt P0A881 2-108; O75496 110-145; O75496 110-145; P0A8U6 2-105) |  | 2
